# The DeepSol protein solubility set
# Experiment: soluble on expression in E. coli; label from the status in PepcDB or PDB records
row,Sequence,soluble on expression in E. coli
1,MRVDIWSDVVCPFCYIGKKRLEHVAAEAGIELDVHWHSFELDPDAPTSHDTSNTERLAKKYGRTFEEMQEMQQNIASMAAQEGIDFQWQKANSGNSFNAHRIIHLAQSKGLGNEAEEAFFHAYMTEGLAIGEREVVEEIASRIGLDHAEVEFVLDSNELSDFVRHDEKIAHEQLNISGVPFFVFDQKLALSGAQPKEVFLQVLQKALTQRENDAVAEASSDAVCSDDSCDIPQKS,not soluble
2,MVTVAVPKERAPGERRVALVPEVVARLVKGGARVRVERGAGEGAYHPDEAYQEAGAEVVERGELLKGAHLLFTVQPPPEDLIQALEPGAIVVGFVQPHKNLELVRALQAKKATVIAMELIPRITRAQSMDALSSQATVAGYLAAIHAARLSPRFFPMLTTAAGTIRPAKVMVMGVGVAGLMAIATAKRLGAQVFAYDVRKAALEQALSLGAKPIELPISAEGEGGYARELTEEEKRIQHEALRDHVAGMDVLITTAQVPGRRAPILLTEDMVERLKPGTVVVDLAAESGGNCVLTKPGEVVEVRGVRVYGPLNLPSELSVHASEMYAKNLYNLSSLLIEKGAFAPKWEDEIVRAALLMKEGEVLHGPTKALLGGA,soluble
3,MGSDKIHHHHHHMRDSTQLPVTRRMLPSLYQSICLILCSQNLSGINLSGISPSSISLGPSTLFRHTRLSQRLAKFQIPRPIKHQSQRFSIFALACFVAATLSGCANSLETCARTELKLTWAEPAELQATVTILSSDEFEGRKTQTQGAAKSRDYIKQQFESLNLQPWGADFIVPFEYQTFFTQETGANVVATAMATEPTNRWRIIVAHYDHLGMSGSKIYHGADDNASGVAAMLAIAKHWQQQFALQPNTLPKVNLMFVATDAEEPGLYGSIALVEQLKTRLPEATFELMINLDMVSHPGRPYGIYLEGSRNFTQFNQFKSLLNQQNRLCIKLTHPKPVGRSIQSTDWLRASDHYPFHKANIPWLYFGVPTHPQYHTPEDTVATIDITFLAAVTESAFELLQLNAEYLKN,not soluble
4,MGHHHHHHSHMTLEEFSAGEQKTERMDKVGDALEEVLSKALSQRTITVGVYEAAKLLNVDPDNVVLCLLAADEDDDRDVALQIHFTLIQAFCCENDINILRVSNPGRLAELLLLETDAGPAASEGAEQPPDLHCVLVTNPHSSQWKDPALSQLICFCRESRYMDQWVPVINLPER,not soluble
5,GFFDLRNELPMNCRARRKVDLSDGALKDIARIDAIWSEQMAKFPDAFLFGEWSIADAMYAPVALRFETYGIELSQGAKAYQQKVLASHAVQKWLAEASQETDIVEEDEAGVEV,not soluble
6,MGSDKIHHHHHHMQGAQSTVDTQSESLNADRSASVDGHPIIVGAFINMYQQLNKDNLFLLRQVYRDDICFRDPMHHVEGIEALTDYFANMYQNVTHIEFDIKEVVISADKQQAALYWTMSYSHPKLSKGQLINVEGMSQLKFSDKIFSHRDYFDLGQMLYEQVPFLGGLIGLLKNRVTK,not soluble
7,MPKFDVSKSDLERLIGRSFSIEEWEDLVLYAKCELDDVWEENGKVYFKLDSKDTNRPDLWSAEGVARQIKWALGIEKGLPKYEVKKSNVTVYVDEKLKDIRPYGVYAIVEGLRLDEDSLSQMIQLQEKIALTFGRRRREVAIGIFDFDKIKPPIYYKAAEKTEKFAPLGYKEEMTLEEILEKHEKGREYGHLIKDKQFYPLLIDSEGNVLSMPPIINSEFTGRVTTDTKNVFIDVTGWKLEKVMLALNVMVTALAERGGKIRSVRVVYKDFEIETPDLTPKEFEVELDYIRKLSGLELNDGEIKELLEKMMYEVEISRGRAKLKYPAFRDDIMHARDILEDVLIAYGYNNIEPEEPKLAVQGRGDPFKDFEDAIRDLMVGFGLQEVMTFNLTNKEVQFKKMNIPEEEIVEIANPISQRWSALRKWILPSLMEFLSNNTHEEYPQRIFEVGLATLIDESRETKTVSEPKLAVALAGTGYTFTNAKEILDALMRHLGFEYEIEEVEHGSFIPGRAGKIIVNGRDIGIIGEVHPQVLENWNIEVPVVAFEIFLRPLYRH,soluble
8,MDINGGGATLPQALYQTSGVLTAGFAQYIGVGSGNGKAAFLNNDYTKFQAGVTNKNVHWAGSDSKLSATELSTYASAKQPTWGKLIQVPSVGTSVAIPFNKSGSAAVNLSVQELCGVFSGRINTWDGISGSGRTGPIVVVYRSESSGTTELFTRFLNAKCNAETGNFAVTTTFGTSFSGGLPAGAVAATGSQGVMTALAAGDGRITYMSPDFAAPTLAGLDDATKVARVGKNVATNTQGVSPAAANVSAAIGAVPVPAAADRSNPDAWVPVFGPDNTAGVQPYPTSGYPILGFTNLIFSQCYADATQTTQVRDFFTKHYGASNNNDAAITANAFVPLPTAWKATVRASFLTASNALSIGNTNVCNGIGRPLLEAAHHHHHH,soluble
9,GPPQMSATNEDLKTNFHSLHNQMRQMPMSHFREALDAPDYSGMRQSGFFAMSQGFQLESHGGDVFMHAHRENPQCKGDFAGDKFHISVQREQVPQAFQALSGLLFSVDSPIDKWKVTDMERVDQQSRVAVGAQFTLYVKPDQENSQYSASSLHNTRQFIECLESRLSESGLMPGQYPESDVHPENWKYVSYRNELRSGRDGGEMQSQALREEPFYRLMAE,soluble
10,MSLSFTVAVKEEILGQHHLSRHELSAIIKMSGSIGLSTSGLTLSVVTENAKLARHLYESFLHFYEIKSEIRHHQRSNLRKNRVYTVFTDEKVQDLLSDLHLADSFFGLETGIDEAILSDEEAGRAYLCGAFLANGSIRDPESGKYQLEISSVYLDHAQGIASLLQQFLLDAKVLERKKGAVTYLQRAEDIMDFLIVIGAMQARDDFERVKILRETRNDLNRANNAETANIARTVSASMKTINNISKIKDIMGLENLPVDLQEVAQLRIQHPDYSIQQLADSLSTPLTKSGVNHRLRKINKIADELEGHHHHHH,soluble
11,MGETTAEAKKDPSSIRVVALDWRYEEILHALGITPVGIVEIGKSKEPQTLKGELEGVTSVGQAKQPNLEVIQSLEPDLILASPTRQAAIMDQLKEIAPTHAYGDTSYTEVLDAMDDIATKVGAEDKAKEVRTRIESKIAQAKNKVEPGTRTALIGWSKNTLYTWVKDSFAGSLLTAAGYEYGYDGEKSAIESKTDVAELTGDKLPEMKLDVMYLYNDIEGFRSSPYADVVSNIVDVEQDTWSRSRGPLAAEAMLDQIINSLEHHHHHH,not soluble
12,GPGSMVDPSVLLAYCPTHDFQRIEAVVREWPGVEAVGSLRTKEGKENTTSVFIKFSDKEAARDATSRIDAVPGLVRKIEEPKAKQRMRKMGKNMLIDPAMEIFSFGATDKGDVTFNERKREGNRRRHPSVIGPGSGSERTSNKGNNAIRHHPFTPPARASVALVDNVPFNMTNDQVARLFSPFGELIDLSRYETMAMVFYRSPDSVLKCIQQLNGKTVKGKIITVSSGAITIPGLLAAVVGVQVHN,soluble
13,MLEHLIKISRRNWSSLKVIILAGGRGKRITLFKPFLVVCGKPLISWAFDAVNKLSDKVYLGINQSHPLFTIFKHSIFKIFPTPDISYENDVKYVVESLGPPILVLPVDIAFINNNIINNLIERCAVDMCTLKSYGSYLGVTYWTGLNFSNYTDIEVKEKLYNINTWEDYIKANKECNILLEHHHHHH,soluble
14,SASSDLEQLCSHVNEKIGNIKKTLSLRNCGQEPTLKTVLNKIGDEIIVINELLNKLELEIQYQEQTNNSLKELCESLEEDYKDIEHLKENVPSHLPQVTVTQSCVKGSDLDPEEPIKVEEPEPVKKPPKEQRSIKEMPFITCDEFNGVPSYMKSRLTYNQINDVIKEINKAVISKYKILHQPKKSMNSVTRNLYHRFIDEETKDTKGRYFIVEADIKEFTTLKADKKFHVLLNILRHCRRLSEVRGGGLTRYVIT,soluble
15,MSLQEKQLKTIQNKIASWIKEIESAFIDELFSKIGPSKMLRSKLMLALLNEKTDAILLDKAFNLCAIVEMIQTASLLHDDVIDKAAMRRKLPSINALFGNFNAVMLGDVFYSKAFFELSKMGESIAKSLSNAVLRLSRGEIEDVFVGGSFNSDKQKYWRILEDKTAHFIEASLKSMAILLNKDAKMYADFGLNFGMAFQIIDDLLDITQDAKTLGKPNFSDFKEGKTTLPYLLLYEKLNQRDQGLLISYFKQDSHEIIEWTKEKFKQYGTIEETLKIAQVYSKKALEAIKGENNLILEKLAQDVIYRTFEGHHHHHH,soluble
16,SGRPFVEMYSEIPEIIHMTEGRELVIPCRVTSPNITVTLKKFPLDTLIPDGKRIIWDSRKGFIISNATYKEIGLLTCEATVNGHLYKTNYLTHRQTNTIIDVQISTPRPVKLLRGHTLVLNCTATTPLNTRVQMTWSYPDEKNKRASVRRRIDQSNSHANIFYSVLTIDKMQNKDKGLYTCRVRSGPSFKSVNTSVHIYDKAFITVKHR,soluble
17,MQDLIKQYNTTLRQLREAQKDAKEEDVKVLTDMISDITYSLEWMKKARRPGNRRGVERLAAYQRERACDPLLMQRYFRSMDDNLYEWDNHQQEHSIGEWDKVRLEDALSLLTEREKEVYLMSRGYCLTYREIARYLDITCSTVQSMIERAEKKIARQVNESLFCNCG,not soluble
18,MGSDKIHHHHHHMPVSQPVSSQPPTANCYDLAVIGGGINGVGIAADAAGRGLKVFLCEKDDLAQHTSSASSKLIHGGLRYLEHYEFRLVREALAEREVLLAKAPHIVKPMRFVLPHRPHLRPAWMIRAGLFLYDHLGKRKRLGASRSLRFGPGYPLKPAITRGFEYADCAVDDARLVVLNAMAARELGAHIRTRTRCLRAERVEGLWQVELQHADGSLQTIHARALVNAAGPWVASFIKDDLKLDAPYGIRLIQGSHIIVPRLYEGEHAYILQNEDQRIVFCIPYLDRFTLIGTTDREYSGDPAAVAITEQETHYLLKVVNEHFNHQLSQADILHTYSGVRPLCNDESDNPSAVTRDYTLALSAEVGQAPLLSVFGGKLTTYRKLAESAMAELKPFFTQMRAPWTASAPLPGAEGMTTVQALIDAVLARCGWLPVDLAKRWVLTYGSRVWRLLDGVHGPEDLGQAIGAGLFTREVDYLLEEEWAEQTADIIWRRTKLGLSLTAQEQMALEAYLQQARKVRANSRAA,not soluble
19,MVATAKYGTPVIDGEIDEIWNTTEEIETKAVAMGSLDKNATAKVRVLWDENYLYVLAIVKDPVLNKDNSNPWEQDSVEIFIDENNHKTGYYEDDDAQFRVNYMNEQTFGTGGSPARFKTAVKLIEGGYIVEAAIKWKTIKPTPNTVIGFNIQVNDANEKGQRVGIISWSDPTNNSWRDPSKFGNLRLIK,soluble
20,MVAATSQNTFDSPRSPLYNFTMDIRPLSDVAGVILVGGRSRRMGRDKALIPLGGKPLVERVIDAFRPLFERILLVGDRGERFASYGLPVFPDIHPGSALGGLYTGLVRAGTPHVFVSACDVPWPDPRVIARLCSLREGFDVVVPRTVGGSEPLFAVYGTGCLPAMERMLREGNYRIYDFYPEVRTRYVEQAELADLVTPARTFVNVNTPEEFETIRNREEGMAIKAVSFVAKSGTGKTTLLEKVIAELKGRGYRIGVIKHDAHRFDIDHPGKDSHRLAAAGADTMLIASPEKLALVKKYDESPPLDELLATYFGDVDIVLTEGFKKSSLPKIEVHRMERSATLLCRGEEHDPTLVAVASDAALALDVPVFDLNNPAQVADFVERTFLAAGAALEHHHHHH,soluble
21,MGSDKIHHHHHHMRSAAVDYAPSQAERRNFQRVRVKIYGRFMLEDRTEHPCQVVDMSPGNVAFRTDRIGMPGEKVIAYIDHIGRIEGVVTRTLQDGFAMTVIASDRKKDKLAAQLTWLANKHELDLPEDRRHERVAPRNPTSVLQLTDGRQYQCRIIDLSLSGAAIEIDVKPAIGVQVMLGTMRGQIVRHFEDGVAIEFAVIQRPETLDSEFNTPRA,not soluble
22,MGSDKIHHHHHHMIRSLWIAKTGLNAQQTNMDVISNNLANVSTNGFKRQRAVFEDLMYQTIRQPGAQSSEQTMLPSGLQLGTGVRPVSTERIHTQGTFSETGNSKDVAIKGQGFFQVQLPDGTTAYTRDGAFQLDGNGQLVTSSGYQVQPAITVPANATELNIGRDGIVSVKVQGQAATNQIGQLTLTTFINDSGLESMGENLYLETASSGAPNETNPGLNGAGLLYQKYVETSNVNVAEELVSMIQTQRAYEINSKAISSSDQMLQKLTQL,not soluble
